The text below walks through data of publication PMC6265447, “The bacterial Mre11–Rad50 homolog SbcCD cleaves opposing strands of DNA by two chemically distinct nuclease reactions” (Nucleic Acids Research, 2018).

Data set [1] has as its target SbcC;SbcD H84Q H84Q (Escherichia coli;Escherichia coli) (UniProt P13458+P0AG76). In words: fluorescence anisotropy. The conditions noted are these: 5 mM Mg2+, 1 mM Mn2+; 25 mM Tris pH 7.5, 50 mM KCl, 5 mM MgCl2, 1 mM MnCl2, 1 mM DTT, 1 mM ATP where stated; 5 nM DNA, 2-1000 nM SbcCD, 20 min at 25 C. In general terms: In fluorescence polarisation assays a small probe gives low polarisation when free and higher when bound to something large.

Data set [2] has as its system T1, Nc1ncnc2c1ncn2[C@@H]1O[C@H](COP(=O)(O)OP(=O)(O)OP(=O)(O)O)[C@@H](O)[C@H]1O.
T1 construct: full-length SbcC (pET28) and SbcD with C-terminal His6 (pET21b), co-expressed in E. coli BL21(DE3); SbcC2-SbcD2 heterotetramer; printed 4M0V is the SbcD dimer structure only; with Nuclease SbcCD subunit D
The data set is described as follows: NADH-coupled (PK/LDH) ATPase assay, Michaelis-Menten fit. The conditions noted are these: dsDNA present, 5 mM MgCl2, 1 mM MnCl2, 50 mM KCl, 25 mM Tris pH 7.5, 37°C. The class given is biochemical, Escherichia coli.

The term Kd denotes the concentration at which binding is half-saturated. Read a high Kd as a looser complex. 60 bp DNA, GC-rich positions 15-29 displayed a Kd in data set [1] of 132 nM.

For orientation: Km means the substrate concentration at which the rate is half of its maximum. With SbcCD (Escherichia coli K-12), in data set [2], the Km worked out at 46 ± 6 µM.

Take 60 bp DNA, AT-rich positions 15-29: the dissociation constant Kd in data set [1] amounted to 45 nM.
